Experimental data as given in the supplement of paper PMC10567573.

B1: SCARA5 (parent)
chain: VTEDLRLKDWEHSIALRNISLAKG

Variants of: B1
Assay: protein stability index of a GFP-peptide fusion (GPS, HEK-293T) (PSI 1-6); higher = more stable
Settings: c terminus: a fixed tail appended
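Also: lentivirally expressed fusions sorted by FACS into six bins by GFP to DsRed ratio, PSI derived from sequencing read proportions per bin multiplied by bin number.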

Protein stability index of substitutions, site by site:
L21: V 3.5; P 4.11; Y 3.48; K 4.37; D 4.8; S 3.85; E 4.4; T 4.23; C 3.84; N 4.08; A 4.15; H 4.07; M 3.68; F 3.48; G 4.03; R 3.56; Q 3.65; W 3.08; I 3.19
I19: S 3.98; G 3.99; K 4.39; W 2.62; F 3; L 3.05; H 3.69; R 4.25; A 3.71; Q 4.44; N 3.77; Y 3.22; D 4.54; P 3.9; E 4.44; C 4.27; M 3.3; V 3.74; T 3.93
A15: S 3.66; Q 3.59; Y 2.39; G 3.58; W 2.46; T 3.64; E 3.14; K 2.98; H 3.37; C 3.13; D 4.2; P 3.54; N 3.42; I 2.59; V 2.34; M 3.27; R 2.74; F 2.86; L 2.63
A22: S 3.24; G 3.14; D 3.73; T 2.97; L 2.67; I 3.37; Y 2.23; P 3.77; F 3.06; R 3.33; C 3.37; Q 3.51; H 3.9; E 3.69; W 2.16; M 2.82; N 3.61; K 3.95; V 3.23
R17: H 3.41; Q 3.21; F 2.49; N 3.53; S 3.77; I 2.07; Y 2.58; D 3.94; P 3.56; M 2.56; C 2.84; K 3.38; E 4.06; V 1.56; L 1.8; G 3.62; T 3.19; W 2.26; A 3.5
I14: T 3.59; V 3.75; S 4.22; Y 3.37; W 3.29
S20: Y 2.56; N 3.54; F 3.17; T 2.86; L 3.37; W 3.15; P 3.91; I 2.15; Q 3.54; A 3.81; G 3.66; R 3.23; M 3.24; C 3.21; V 3.56; K 2.94; H 3.04; E 2.36; D 3.67
K23: L 2.95; I 2.36; H 3.29; G 3.14; D 3.84; A 3.04; C 3.1; F 2.35; E 3.93; M 2.16
N18: Y 1.95; A 2.25; F 1.86; T 3.58; C 2.17; R 3.15; E 3.68; P 2.81; I 2.47; Q 2.93; W 2.47; S 3.37; G 3.6; D 3.81; M 1.81; V 1.76; H 2.96; K 3.5; L 1.35
L16: K 3.77; Y 3.14; N 4.12; F 3.1; E 3.73; C 3.37; I 3.42; Q 4.06; P 4.52; H 3.45; V 3.98; M 3.45; D 4.32; T 3.81; W 2.91; A 3.71; G 4; S 4.21; R 3.4
